# Measurements taken from IntAct's records for PubMed 23728178.
# B1: Complement factor H-related protein 1 (Homo sapiens), Q03591 (parent)
# chain: MWLLVSVILISRISSVGGEATFCDFPKINHGILYDEEKYKPFSQVPTGEVFYYSCEYNFVSPSKSFWTRITCTEEGWSPTPKCLRLCFFPFVENGHSESSGQTHLEGDTVQIICNTGYRLQNNENNISCVERGWSTPPKCRSTDTSCVNPPTVQNAHILSRQMSKYPSGERVRYECRSPYEMFGDEEVMCLNGNWTEPPQCKDSTGKCGPPPPIDNGDITSFPLSVYAPASSVEYQCQNLYQLEGNKRITCRNGQWSEPPKCLHPCVISREIMENYNIALRWTAKQKLYLRTGESAEFVCKRGYRLSSRSHTLRTTCWDGKLEYPTCAKR
# B2: Complement factor H-related protein 1 (Homo sapiens), Q03591 (parent)
# chain: B1 chain
# partner: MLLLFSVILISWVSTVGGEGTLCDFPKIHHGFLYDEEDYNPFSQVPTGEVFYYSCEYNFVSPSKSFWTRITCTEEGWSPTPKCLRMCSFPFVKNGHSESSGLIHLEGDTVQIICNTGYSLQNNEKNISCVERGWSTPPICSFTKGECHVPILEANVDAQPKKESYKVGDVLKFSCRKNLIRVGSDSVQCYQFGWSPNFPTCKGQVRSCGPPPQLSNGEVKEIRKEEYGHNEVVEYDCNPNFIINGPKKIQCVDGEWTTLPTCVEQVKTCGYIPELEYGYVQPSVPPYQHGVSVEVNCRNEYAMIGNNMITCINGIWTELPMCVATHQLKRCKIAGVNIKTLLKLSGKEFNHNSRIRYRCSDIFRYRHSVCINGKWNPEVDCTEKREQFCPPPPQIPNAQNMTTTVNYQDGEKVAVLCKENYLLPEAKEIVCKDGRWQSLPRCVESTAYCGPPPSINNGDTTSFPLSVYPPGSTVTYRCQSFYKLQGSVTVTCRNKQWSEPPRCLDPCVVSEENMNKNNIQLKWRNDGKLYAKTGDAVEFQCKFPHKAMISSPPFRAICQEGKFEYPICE
# Variants of: B1
# Conditions: with fhr2_human CFHR2, P36980
row,effect of a mutation on the interaction,Variant
1,with no effect,H157Y;L159V;E175Q

# Variants of: B2
# Conditions: with fhr5_human CFHR5, Q9BXR6
row,effect of a mutation on the interaction,Variant
1,with no effect,H157Y;L159V;E175Q
